Starred links: 1 amine or outer side, 2 acyl side, 3 side chain; linkers in the order of their positions; H or OH if unused. Non-standard residues stand in square brackets, D forms with d. Groups on a side chain read outwards from the residue. No end group written: not given here. *: point of attachment. C18 diacid = O=C(O)CCCCCCCCCCCCCCCCC(=O)*; γGlu = O=C(O)[C@H](CCC(=O)[*:2])N[*:1]; AEEA = NCCOCCOCC(=O)O; Aib = CC(C)(N)C(=O)O
Target: human corticotropin-releasing factor 2α (CRF2 α receptor) (human), Q13324
Sequence (Q13324 20-411): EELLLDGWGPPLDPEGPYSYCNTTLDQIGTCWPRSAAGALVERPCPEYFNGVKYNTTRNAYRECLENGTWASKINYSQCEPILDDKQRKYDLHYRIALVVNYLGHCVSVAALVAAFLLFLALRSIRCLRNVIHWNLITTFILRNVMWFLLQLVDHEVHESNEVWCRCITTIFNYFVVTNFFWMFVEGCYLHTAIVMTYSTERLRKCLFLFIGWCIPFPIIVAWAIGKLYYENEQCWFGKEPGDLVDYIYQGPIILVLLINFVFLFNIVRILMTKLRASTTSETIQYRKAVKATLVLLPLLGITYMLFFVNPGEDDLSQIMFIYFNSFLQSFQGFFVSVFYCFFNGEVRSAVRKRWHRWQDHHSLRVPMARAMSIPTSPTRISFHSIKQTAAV
Assay: cell-based or functional assay

Binder	EC50 [nM], 0% HSA	EC50 [nM], 0.1% HSA
IVLSLDVPIKLK([AEEA-AEEA-γGlu-C18 diacid])QILLEQERQK[Aib]QREQAETNKQILAQV-NH2 (N-terminus assumed; SMILES CC[C@H](C)[C@H](N)C(=O)N[C@H](C(=O)N[C@@H](CC(C)C)C(=O)N[C@@H](CO)C(=O)N[C@@H](CC(C)C)C(=O)N[C@@H](CC(=O)O)C(=O)N[C@H](C(=O)N1CCC[C@H]1C(=O)N[C@H](C(=O)N[C@@H](CCCCN)C(=O)N[C@@H](CC(C)C)C(=O)N[C@@H](CCCCNC(=O)COCCOCCNC(=O)COCCOCCNC(=O)CC[C@H](NC(=O)CCCCCCCCCCCCCCCCC(=O)O)C(=O)O)C(=O)N[C@@H](CCC(N)=O)C(=O)N[C@H](C(=O)N[C@@H](CC(C)C)C(=O)N[C@@H](CC(C)C)C(=O)N[C@@H](CCC(=O)O)C(=O)N[C@@H](CCC(N)=O)C(=O)N[C@@H](CCC(=O)O)C(=O)N[C@@H](CCCNC(=N)N)C(=O)N[C@@H](CCC(N)=O)C(=O)N[C@@H](CCCCN)C(=O)NC(C)(C)C(=O)N[C@@H](CCC(N)=O)C(=O)N[C@@H](CCCNC(=N)N)C(=O)N[C@@H](CCC(=O)O)C(=O)N[C@@H](CCC(N)=O)C(=O)N[C@@H](C)C(=O)N[C@@H](CCC(=O)O)C(=O)N[C@H](C(=O)N[C@@H](CC(N)=O)C(=O)N[C@@H](CCCCN)C(=O)N[C@@H](CCC(N)=O)C(=O)N[C@H](C(=O)N[C@@H](CC(C)C)C(=O)N[C@@H](C)C(=O)N[C@@H](CCC(N)=O)C(=O)N[C@H](C(N)=O)C(C)C)[C@@H](C)CC)[C@@H](C)O)[C@@H](C)CC)[C@@H](C)CC)C(C)C)C(C)C) [SEQ ID NO: 103]	0.84 nM	–
IVLSLD[dV]PIKLK([AEEA-AEEA-γGlu-C18 diacid])QILLKQERQKKQREQAETNKQILAQV-NH2 (N-terminus assumed; SMILES CC[C@H](C)[C@H](N)C(=O)N[C@H](C(=O)N[C@@H](CC(C)C)C(=O)N[C@@H](CO)C(=O)N[C@@H](CC(C)C)C(=O)N[C@@H](CC(=O)O)C(=O)N[C@@H](C(=O)N1CCC[C@H]1C(=O)N[C@H](C(=O)N[C@@H](CCCCN)C(=O)N[C@@H](CC(C)C)C(=O)N[C@@H](CCCCNC(=O)COCCOCCNC(=O)COCCOCCNC(=O)CC[C@H](NC(=O)CCCCCCCCCCCCCCCCC(=O)O)C(=O)O)C(=O)N[C@@H](CCC(N)=O)C(=O)N[C@H](C(=O)N[C@@H](CC(C)C)C(=O)N[C@@H](CC(C)C)C(=O)N[C@@H](CCCCN)C(=O)N[C@@H](CCC(N)=O)C(=O)N[C@@H](CCC(=O)O)C(=O)N[C@@H](CCCNC(=N)N)C(=O)N[C@@H](CCC(N)=O)C(=O)N[C@@H](CCCCN)C(=O)N[C@@H](CCCCN)C(=O)N[C@@H](CCC(N)=O)C(=O)N[C@@H](CCCNC(=N)N)C(=O)N[C@@H](CCC(=O)O)C(=O)N[C@@H](CCC(N)=O)C(=O)N[C@@H](C)C(=O)N[C@@H](CCC(=O)O)C(=O)N[C@H](C(=O)N[C@@H](CC(N)=O)C(=O)N[C@@H](CCCCN)C(=O)N[C@@H](CCC(N)=O)C(=O)N[C@H](C(=O)N[C@@H](CC(C)C)C(=O)N[C@@H](C)C(=O)N[C@@H](CCC(N)=O)C(=O)N[C@H](C(N)=O)C(C)C)[C@@H](C)CC)[C@@H](C)O)[C@@H](C)CC)[C@@H](C)CC)C(C)C)C(C)C) [SEQ ID NO: 102]	0.07 nM	–

Results, then the binder that gave them:

EC50 [nM], 0% HSA	EC50 [nM], 0.1% HSA	Binder
0.41 nM	15.3 nM	IVLSLDVPIKLK([AEEA-AEEA-γGlu-C18 diacid])QILLEQERQK[Aib]QRQQAETNKQILAQV-NH2 (N-terminus assumed; SMILES CC[C@H](C)[C@H](N)C(=O)N[C@H](C(=O)N[C@@H](CC(C)C)C(=O)N[C@@H](CO)C(=O)N[C@@H](CC(C)C)C(=O)N[C@@H](CC(=O)O)C(=O)N[C@H](C(=O)N1CCC[C@H]1C(=O)N[C@H](C(=O)N[C@@H](CCCCN)C(=O)N[C@@H](CC(C)C)C(=O)N[C@@H](CCCCNC(=O)COCCOCCNC(=O)COCCOCCNC(=O)CC[C@H](NC(=O)CCCCCCCCCCCCCCCCC(=O)O)C(=O)O)C(=O)N[C@@H](CCC(N)=O)C(=O)N[C@H](C(=O)N[C@@H](CC(C)C)C(=O)N[C@@H](CC(C)C)C(=O)N[C@@H](CCC(=O)O)C(=O)N[C@@H](CCC(N)=O)C(=O)N[C@@H](CCC(=O)O)C(=O)N[C@@H](CCCNC(=N)N)C(=O)N[C@@H](CCC(N)=O)C(=O)N[C@@H](CCCCN)C(=O)NC(C)(C)C(=O)N[C@@H](CCC(N)=O)C(=O)N[C@@H](CCCNC(=N)N)C(=O)N[C@@H](CCC(N)=O)C(=O)N[C@@H](CCC(N)=O)C(=O)N[C@@H](C)C(=O)N[C@@H](CCC(=O)O)C(=O)N[C@H](C(=O)N[C@@H](CC(N)=O)C(=O)N[C@@H](CCCCN)C(=O)N[C@@H](CCC(N)=O)C(=O)N[C@H](C(=O)N[C@@H](CC(C)C)C(=O)N[C@@H](C)C(=O)N[C@@H](CCC(N)=O)C(=O)N[C@H](C(N)=O)C(C)C)[C@@H](C)CC)[C@@H](C)O)[C@@H](C)CC)[C@@H](C)CC)C(C)C)C(C)C) [SEQ ID NO: 105]
0.32 nM	–	IVLSLDVPIKLK([AEEA-AEEA-γGlu-C18 diacid])QILLKQERQK[Aib]QREQAETNKQILAQV-NH2 (N-terminus assumed; SMILES CC[C@H](C)[C@H](N)C(=O)N[C@H](C(=O)N[C@@H](CC(C)C)C(=O)N[C@@H](CO)C(=O)N[C@@H](CC(C)C)C(=O)N[C@@H](CC(=O)O)C(=O)N[C@H](C(=O)N1CCC[C@H]1C(=O)N[C@H](C(=O)N[C@@H](CCCCN)C(=O)N[C@@H](CC(C)C)C(=O)N[C@@H](CCCCNC(=O)COCCOCCNC(=O)COCCOCCNC(=O)CC[C@H](NC(=O)CCCCCCCCCCCCCCCCC(=O)O)C(=O)O)C(=O)N[C@@H](CCC(N)=O)C(=O)N[C@H](C(=O)N[C@@H](CC(C)C)C(=O)N[C@@H](CC(C)C)C(=O)N[C@@H](CCCCN)C(=O)N[C@@H](CCC(N)=O)C(=O)N[C@@H](CCC(=O)O)C(=O)N[C@@H](CCCNC(=N)N)C(=O)N[C@@H](CCC(N)=O)C(=O)N[C@@H](CCCCN)C(=O)NC(C)(C)C(=O)N[C@@H](CCC(N)=O)C(=O)N[C@@H](CCCNC(=N)N)C(=O)N[C@@H](CCC(=O)O)C(=O)N[C@@H](CCC(N)=O)C(=O)N[C@@H](C)C(=O)N[C@@H](CCC(=O)O)C(=O)N[C@H](C(=O)N[C@@H](CC(N)=O)C(=O)N[C@@H](CCCCN)C(=O)N[C@@H](CCC(N)=O)C(=O)N[C@H](C(=O)N[C@@H](CC(C)C)C(=O)N[C@@H](C)C(=O)N[C@@H](CCC(N)=O)C(=O)N[C@H](C(N)=O)C(C)C)[C@@H](C)CC)[C@@H](C)O)[C@@H](C)CC)[C@@H](C)CC)C(C)C)C(C)C) [SEQ ID NO: 104]
